“Also recorded” adds a separate entry of the source.
Tests used:
Tritrichomonas muris = test: Metronidazole in drinking water of WT (BIH) mice: T. muris abundance in stool DNA by qPCR; type: in vivo; details: metronidazole 2.5 g/L in drinking water for 1 week
Description: (§1) Antibiotic treatment—Mice were treated with metronidazole (2.5 g/L) with 1% sucrose in the drinking water for 7 days. Control mice were given 1% sucrose water over the same time span. Fluid intake was monitored and metronidazole solution was changed 4 days after initiating antibiotic treatment.
Tritrichomonas muris enumeration—The distal 10 cm of small intestine was removed and flushed with ice-cold sterile PBS using a 19-gauge feeding needle. The intestinal contents were then pelleted by centrifugation and stored at −20° C. Genomic DNA was isolated from the stool with QIamp Fast DNA Stool mini kit (Qiagen) according to the manufacturer's directions. To detect and enumerate Tritrichomonas muris, quantitative PCR (qPCR) was performed using KAPPA SYBR fast Universal PCR (KAPPA Biosystems) with the following primers recognizing T. muris 28S rRNA gene: 5′-[…]-3′(SEQ ID NO. 1) and 5′-[…]-3′ (SEQ ID NO. 2). To convert qPCR values into parasite numbers, T. muris trophozoytes were isolated and counted using a hemocytomer before extracting genomic DNA and analyzing by qPCR. […] The T. muris 28S rRNA gene and Eubacteria 16S rRNA gene were amplified by qPCR and T. muris 28S relative abundance was calculated as 2^−ΔCt(28S-16S).

tuft cells = test: Metronidazole in drinking water of WT (BIH) mice: tuft cell frequency in the epithelium; type: in vivo; details: metronidazole 2.5 g/L in drinking water for 1 week, vs control
Description: as §1
Histology and Fluorescence microscopy —The small intestine was removed and divided into proximal and distal sections before fixation in 4% paraformaldehyde. The tissue was then embedded in paraffin and cut into 5 μm thick sections. For both histology and immunofluorescence, sections were initially deparaffinized and rehydrated. Hematoxylin and eosin (H&E) staining was performed using standard procedures. Goblet cells were identified by alcian blue/nuclear red staining and enumerated along the crypt-villus axis by quantitative microscopy. For immunofluorescence, heat-mediated antigen retrieval was performed in Tris-EDTA buffer 0.05% Tween-20 pH 9.0 for 20 minutes. Afterwards, the slides were washed in PBS and blocked in PBS containing 3% BSA, 3% donkey serum, 0.1% Triton X-100, 0.1% saponin for 1 hour at room temperature. Primary antibodies were incubated overnight at 4° C. and secondary antibodies were applied for 1.5 hours at room temperature. […]

[1] = tested on: DCLK1 and Trpm5 expression in organoids; test: Small intestinal organoids treated with cytokine: gene expression by RT-qPCR; type: cell-based, mice; details: IL-13 treated organoids
Excerpt: RNA isolation and RT-PCR for in vivo and vitro tuft cells—Epithelial cells from Gfi1b^EGFP/+ mice were isolated and stained for Fluorescence Activated Cell Sorting (FACS) as previously detailed. Tuft cells were sorted based on GFP^+EpCam^+CD45^−PI^− while the remaining epithelial cells were GFP-EpCam^+CD45^−PI^−. RNA was then extracted from tuft cells and the remaining epithelium using RNeasy Micro Kit (Qiagen). Whole intestinal organoids were initially stored in RNAlater solution (Ambion) before extracting RNA using Qiazol (Qiagen) according to the manufacturer's directions. cDNA was synthesized using the iScript cDNA Synthesis Kit (Bio-Rad) and RT-qPCR was performed using the KAPA SYBR FAST Universal qPCR Kit (KAPA Biosystems). […]
Small intestine organoid culture and flow cytometry—Distal small intestinal organoids were prepared as previously described (Miyoshi et al., Nat Protoc. 8, 2471-2482 (2013)). […] The resulting solution was filtered through 40 μm mesh and stained for flow cytometry with APC-conjugated anti-EpCam (clone G8.8, Biolegend) with cell viability assessed with PI (Biolegend).

[2] = tested on: tuft cells in small intestinal organoids; test: Small intestinal organoids treated with recombinant cytokine: GFP+ tuft cell abundance by flow cytometry; type: cell-based, mice; details: 48 hours; for tuft cells of total organoid cells: IL-13 10 ng/ml, untreated 0.3%; for effect on tuft cell numbers / abundance in organoids (in words): WT and Trpm5-/- organoids, IL-13 10 ng/ml or IL-25 50 ng/ml
Description: Small intestine organoid culture and flow cytometry—Distal small intestinal organoids were prepared as previously described (Miyoshi et al., Nat Protoc. 8, 2471-2482 (2013)). To assess cytokine effects on tuft cells abundance, IL-13 (10 ng/ml, Biolegend, Endotoxin level <0.01 ng/μg) or IL-25 (50 ng/mil, Biolegend, Endotoxin level <0.01 ng/μg) were added to organoid media for 48 hours. To perform flow cytometry, organoids were liberated from the matrigel matrix as described by Miyoshi et al. and digested in DMEM containing 10% FBS, 0.5 units/ml Dispase II (StemCell Technologies), 50 μg/ml DNase (Roche) for 8 minutes at 37° C. The resulting solution was filtered through 40 μm mesh and stained for flow cytometry with APC-conjugated anti-EpCam (clone G8.8, Biolegend) with cell viability assessed with PI (Biolegend).

[3] = tested on: eosinophils and tuft cells of the distal small intestine; test: In vivo IL-25 i.p. injections in T. muris colonized Trpm5-/- mice: eosinophils and tuft cells of distal small intestine; details: 0.5 μg IL-25 i.p. daily for 7 days, vs PBS
Description: Epithelial cell isolation and flow cytometry —The distal 10 cm of small intestine was removed and flushed as described above. The intestine was opened longitudinally and gently agitated at 4° C. in PBS, 2% FBS, 5 mM EDTA, 1 mM DTT for 10 min. The tissue was then transferred into prewarmed PBS, 2% FBS, 5 mM EDTA and rotated at 37° C. for 15 minutes followed by vigorous shaking to remove epithelial cells. This was repeated and epithelial cells from both fractions were combined and washed with PBS. The epithelium was then digested in DMEM containing 10% FBS, 0.5 units/ml Dispase II (StemCell Technologies), 50 μg/ml DNase (Roche) for 12 minutes at 37° C. The resulting solution was passed through 40 μm filters and washed with PBS, 2% FBS, 1 mM EDTA. The resulting single cell suspension was initially Fc blocked with anti-CD16/CD32 (clone 93, Biolegend) and then stained with the following antibodies: PacBlue-conjugated anti-CD45 (clone 30-F11, Biolegend), APC-conjugated anti-EpCam (clone G8.8, Biolegend). The cell viability was assessed by propidium iodide (PI) (Biolegend) staining.
Lamina propria cell isolation and flow cytometry—The distal 10 cm of small intestine was collected and epithelial cells were removed as detailed above. […]

Molecule	T. muris levels in stool (T. muris 28S rRNA relative to eubacteria 16S rRNA) (Tritrichomonas muris)	tuft cell abundance / frequency in the epithelium (tuft cells)	expression of Dclk1 in organoids [1]	expression of Trpm5 in organoids [1]	tuft cells of total organoid cells ([2]; Trpm5-/- organoids)	effect on tuft cell numbers / abundance in organoids (in words) [2]	tuft cells of total organoid cells ([2]; WT organoids)	distal small intestinal eosinophilia [3]	tuft cell abundance in distal small intestine [3]
Cc1ncc([N+](=O)[O-])n1CCO [metronidazole]	eliminated T. muris; also recorded: below the limit of detection	reduced tuft cell abundance; also recorded: reduces tuft cell frequency							
IL-13: recombinant IL-13 (Biolegend), type 2 cytokine added to organoid media (protein, UniProt P20109 19-131, looked up) Interleukin-13: APGPVPRSVSLPLTLKELIEELSNITQDQTPLCNGSMVWSVDLAAGGFCVALDSLTNISNCNAIYRTQRILHGLCNRKAPTTVSSLPDTKIEVAHFITKLLSYTKQLFRHGPF			increased	increased	10.9%	increases tuft cell abundance	11.9%		
IL-25: recombinant IL-25 (Biolegend; R&D), parasite-induced cytokine, added to organoids or injected i.p. (protein, UniProt Q8VHH8 17-169, looked up) Interleukin-25: VSLRIQEGCSHLPSCCPSKEQEPPEEWLKWSSASVSPPEPLSHTHHAESCRASKDGPLNSRAISPWSYELDRDLNRVPQDLYHARCLCPHCVSLQTGSHMDPLGNSVPLYHNQTVFYRRPCHGEEGTHRRYCLERRLYRVSLACVCVRPRVMA						did not increase tuft cell numbers		restoration	restoration

Source: patent publication US20220054591A1, “METHODS OF TREATING OF INFLAMMATORY BOWEL DISEASE AND PARASITE INFECTION” (President and Fellows of Harvard College, priority 2016, published 2022)
